# Measured values published in patent US12202907B2, “Nucleic acids encoding and methods of producing proteins comprising antibody chains” (Innate Pharma, priority 2018, dated 2025).
# Positions count from the first letter of the chain named. Entries after “also recorded” stand apart in the source; their conditions may differ.
# Tests used:
# [1] = biological target: T1, soluble recombinant human CD39 protein (Homo sapiens, UniProt P49961); test: Inhibition of the enzymatic activity of soluble CD39 (Cell Titer Glo, cell-free); assay type: biochemical
# T1 construct: made in house; host or cells: CHO cells
# T1 sequence (P49961 with tags, fused parts or gaps): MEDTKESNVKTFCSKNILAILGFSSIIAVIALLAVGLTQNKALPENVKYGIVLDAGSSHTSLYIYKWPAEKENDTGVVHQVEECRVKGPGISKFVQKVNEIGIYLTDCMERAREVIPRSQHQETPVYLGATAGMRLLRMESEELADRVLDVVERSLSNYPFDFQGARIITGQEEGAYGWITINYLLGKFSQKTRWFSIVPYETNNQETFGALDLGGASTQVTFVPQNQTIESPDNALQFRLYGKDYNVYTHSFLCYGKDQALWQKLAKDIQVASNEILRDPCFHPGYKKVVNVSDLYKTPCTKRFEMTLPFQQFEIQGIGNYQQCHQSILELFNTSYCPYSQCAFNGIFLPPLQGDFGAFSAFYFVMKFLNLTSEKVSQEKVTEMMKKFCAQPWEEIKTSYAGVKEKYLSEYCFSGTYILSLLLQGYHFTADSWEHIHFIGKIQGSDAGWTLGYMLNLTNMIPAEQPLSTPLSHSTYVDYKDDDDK
# Method: The inhibition by antibodies of the enzymatic activity of soluble CD39 protein produced was evaluated using Cell Titer GIo™ (Promega, reference G7571) that allows assessment of ATP hydrolysis through use of a reagent that generates a luminescent signal proportional to the amount of ATP present. In this way, inhibition of the soluble-CD39-meidated ATP hydrolysis can be assessed. Briefly, dose ranges of anti-CD39 antibodies from 100 μg/ml to […] were incubated with 400 ng/ml of soluble recombinant human CD39 protein having the amino acid sequence described in the Methods section (SEQ ID NO: 44), for 1 h at 37° C. 20 μM ATP was added to the plates for 30 additional minutes at 37° C. before addition of CTG (Cell Titer Glo) reagent. Emitted light was quantified using an Enspire™ luminometer after a short incubation period of 5 min in the dark. Anti-CD39 antibody efficacy was determined by comparing emitted light in presence of antibody with ATP alone (maximal light emission) and ATP together with soluble CD39 protein (minimal light emission).
# [2] = biological target: T2, CHO cells expressing human CD39 (Homo sapiens, UniProt P49961); test: Antibody titration on CHO-huCD39 by flow cytometry; assay type: binding; conditions: qualitative
# T2 construct: expressed in transfected cells; host or cells: CHO
# T2 sequence (P49961 1-510): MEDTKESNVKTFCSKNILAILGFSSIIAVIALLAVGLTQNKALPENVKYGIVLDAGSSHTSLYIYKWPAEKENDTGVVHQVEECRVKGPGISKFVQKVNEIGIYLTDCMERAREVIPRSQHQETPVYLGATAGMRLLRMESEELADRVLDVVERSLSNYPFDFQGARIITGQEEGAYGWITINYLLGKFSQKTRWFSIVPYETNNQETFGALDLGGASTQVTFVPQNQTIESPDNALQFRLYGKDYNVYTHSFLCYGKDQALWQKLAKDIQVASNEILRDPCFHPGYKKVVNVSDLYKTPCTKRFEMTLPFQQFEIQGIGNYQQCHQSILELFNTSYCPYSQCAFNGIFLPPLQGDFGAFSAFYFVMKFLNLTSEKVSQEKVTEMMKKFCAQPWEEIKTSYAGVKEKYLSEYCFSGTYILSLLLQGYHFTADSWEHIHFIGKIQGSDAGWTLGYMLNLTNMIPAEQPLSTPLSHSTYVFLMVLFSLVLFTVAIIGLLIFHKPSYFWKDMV
# Method: Antibody I-394 was tested in two repeated experiments for binding to CHO cells expressing human CD39, CHO cells expressing cynomolgus (Macaca fascicularis) CD39, CHO cells expressing murine CD39, and human Ramos lymphoma cells (ATCC™, reference CRL-1596). Cells were incubated with various concentration of unlabeled anti-CD39 antibody from 30 μg/ml to 5×10^−4 μg/ml, for 30 minutes at 4° C. After washes, cells were incubated with Goat anti-mouse H+L labeled secondary antibody for 30 min at 4° C.
# [3] = biological target: T3, CD39 mutants transfected in Hek-293T cells (Homo sapiens, UniProt P49961, E142K/M139A/R138A); test: Epitope mapping: binding to CD39 mutants by flow cytometry; conditions: mutant 19: R138A, M139A, E142K
# T3 construct: expressed in transfected cells; host or cells: HEK293T
# T3 sequence (P49961 1-510 R138A/M139A/E142K): T2 sequence (P49961 1-510) with R138A, M139A, E142K
# Method: CD39 mutants were generated by PCR. The sequences amplified were run on agarose gel and purified using the Macherey Nagel PCR Clean-Up Gel Extraction kit (reference 740609). The purified PCR products generated for each mutant were then ligated into an expression vector, with the ClonTech InFusion system. The vectors containing the mutated sequences were prepared as Miniprep and sequenced. After sequencing, the vectors containing the mutated sequences were prepared as Midiprep using the Promega PureYield™ Plasmid Midiprep System. HEK293T cells were grown in DMEM medium (Invitrogen), transfected with vectors using Invitrogen's Lipofectamine 2000 and incubated at 37° C. in a CO2 incubator for 48 hours prior to testing for transgene expression. The targeted amino acid mutations in the table 1 below are shown using numbering of SEQ ID NO: 1.
# In order to define the epitopes of anti-CD39 antibodies, we designed CD39 mutants defined by substitutions of amino acids exposed at the molecular surface over the surface of CD39.
# Dose-ranges of I-394 (10-2.5-0.625-0.1563-0.0391-0.0098-0.0024-0.0006 μg/ml) are tested on the 20 generated mutants by flow cytometry. […] Mutant 5 contains amino acid substitutions at residues Q96, N99, E143 and R147. […]
substance,measurement,setting,value
"I-394: anti-CD39 antibody, VH SEQ ID NO: 6, VL SEQ ID NO: 7, human IgG1 Fc with L234A/L235E/G237A/A330S/P331S","inhibition maximum, soluble CD39",[1],74.9%
same,potency ranking for inhibition of soluble CD39,"[1]; FIG. 2B, comparison of BY40, I-394, I-395, I-396",greatest potency
same,inhibition of the enzymatic (ATPase) activity of soluble CD39 protein,[1]; qualitative,strong inhibition of the enzymatic activity of soluble CD39; also recorded: inhibits the enzymatic activity of soluble CD39 protein
same,binding to cells expressing human CD39 (CHO-huCD39),[2],bound
same,binding to cells expressing mutant 19 of CD39,[3],complete loss of binding
